Reference: US20110065645A1, “Compositions and Methods for Modulating Neuron Degeneration and Neuron Guidance” (The Regents of the University of California, priority 2009, published 2011)

Key:
JNK = experiment: Phospho-Jun immunoblot in dissociated commissural neurons; format: cell-based, rat; conditions: within 15 minutes of bath application; 200 ng/ml
Excerpt: JNK is activated by Wnt5a in commissural axons and required for their A-P guidance. Several Wnt genes are expressed in an anterior-posterior gradient in or around the floor plate of the spinal cord. However, the mechanisms of how Wnt signaling mediates axon attraction and growth have yet to be elucidated. We tested whether JNK signaling is activated in commissural neurons via Wnt5a stimulation by measuring the levels of phospho Jun (FIG. 20A) and also examined whether JNK is required for A-P guidance of commissural axons. Commissural neurons were cultured for 36 hrs and subject to bath application of Wnt5a. […] Furthermore, endogenous Fzd3 and Vgl2 proteins can be detected in rat E13 commissural neuron lysates after 36 hours in culture (anti-Fzd3 and anti-Vgl2 IB, FIG. 20A). The specificity of Fzd3 and Vgl2 antibodies for western blot analysis was validated using knock and mutant mouse line (FIG. 27D and FIG. 27E).
Commissural neuron culture, treatment and lysis. Rat E13 embryos were dissected and commissural neuron culture was prepared as previously described (Augsburger et al., 1999). […] The cells were then lysed on ice and the lysates were analyzed on immunoblots.

commissural axons = experiment: Axon length of electroporated dissociated commissural neurons on Wnt5a-coated coverslips; format: cell-based, rat
Excerpt: Fzd3 mediates Wnt-stimulated commissural axon elongation. To directly test the function of PCP components in Wnt-mediated outgrowth of commissural axons, we electroporated DNA constructs to express PCP components in dissociated commissural neurons. The spinal cord of E11.5 mouse or E13 rat contains a ventricle into which plasmid DNA can be introduced (FIG. 28A). After injecting DNA into the central canal and electroporation, the spinal cord was dissected into an “open-book” configuration and then the dorsal spinal cord margin including the progenitor domains was dissociated as previously described ((Augsburger et al., 1999), FIG. 28A). More than 90% of the electroporated and dissociated neurons were TAG-1 immuno-reactive, confirming that they are commissural neurons (Wolf et al., 2008).
This may be due the presence of low endogenous levels of PCP components in these axons following 24 hours of culture (FIGS. 20A-20E).
Electroporated commissural culture. Electroporations of rat E13 spinal cords were completed as previously described (Wolf et al., 2008). Neurons were dissociated from these spinal preps and grown as previously described (Augsburger et al., 1999). […] The axons lengths were quantified with Zeiss LSM510 software, verified with ImageJ quantification, and the data were analyzed with an unpaired two-tailed t test for each electroporation condition.

β-catenin = β-catenin immunostaining in commissural axon growth cones; format: cell-based; conditions: bath application; LiCl 2 mM
Excerpt: To understand how atypical PKC/Par pathway regulates axon guidance, we set out to determine the subcellular localization of aPKC, their substrates and downstream cellular effectors. […] Thus, our high-resolution confocal imaging detects a tendency of β-catenin being concentrated to one side of the growth cone (FIG. 9A). It is possible that there is low level of Wnt proteins in the culture (many neurons express Wnts). […] Therefore, it is also possible that intrinsic aPKC signaling can create chirality within the growth cone with out extrinsic signals. Such intrinsic polarity may then robustly regulate cellular morphology upon directional instructions from the environment such as a Wnt gradient. It is well known that GSK3β phosphorylates β-catenin, which then leads to proteosome-mediated degradation of β-catenin. And it is also known that GSK3β is phosphorylated and inhibited by PKCζ^(1,2). Therefore, inhibiting GSK3β or the proteosome activity generally should increase β-catenin level throughout the growth cone, canceling the asymmetry. […] We are now testing the hypothesis that Wnt proteins may locally activate PKCζ, which then inhibits GSK3β and locally stabilizes β-catenin, which is part of the asymmetric cellular mechanism leading to directional choice of a growth cone. We examine the localization of β-catenin in post-crossing commissural axon growth cones in the “post-crossing” assay and “open-book” assays.

B1: Wnt5a: recombinant Wnt5a protein (R&D Systems) (protein, UniProt P41221 62-380, looked up)
Protein Wnt-5a: IIGAQPLCSQLAGLSQGQKKLCHLYQDHMQYIGEGAKTGIKECQYQFRHRRWNCSTVDNTSVFGRVMQIGSRETAFTYAVSAAGVVNAMSRACREGELSTCGCSRAARPKDLPRDWLWGGCGDNIDYGYRFAKEFVDARERERIHAKGSYESARILMNLHNNEAGRRTVYNLADVACKCHGVSGSCSLKTCWLQLADFRKVGDALKEKYDSAAAMRLNSRGKLVQVNSRFNSPTTQDLVYIDPSPDYCVRNESTGSLGTQGRLCNKTSEGMDGCELMCCGRGYDQFKTVQTERCHCKFHWCCYVKCKKCTEIVDQFVCK
increase of endogenous phospho-Jun levels (JNK): 4 fold | increase in axon growth (commissural axons; control neurons expressing EGFP): ~15% | enhancement of axon length (commissural axons; neurons over-expressing Fzd3-EGFP, within 24 hours): ~36% | β-catenin level and asymmetry in the growth cone (β-catenin): increased the levels of β-catenin throughout the growth cone
